Tests used:
Assay in all cases: cell-based or functional assay
human GIP receptor = target: T1, human GIP receptor (human, UniProt P48546 22-466)
T1 sequence (looked up): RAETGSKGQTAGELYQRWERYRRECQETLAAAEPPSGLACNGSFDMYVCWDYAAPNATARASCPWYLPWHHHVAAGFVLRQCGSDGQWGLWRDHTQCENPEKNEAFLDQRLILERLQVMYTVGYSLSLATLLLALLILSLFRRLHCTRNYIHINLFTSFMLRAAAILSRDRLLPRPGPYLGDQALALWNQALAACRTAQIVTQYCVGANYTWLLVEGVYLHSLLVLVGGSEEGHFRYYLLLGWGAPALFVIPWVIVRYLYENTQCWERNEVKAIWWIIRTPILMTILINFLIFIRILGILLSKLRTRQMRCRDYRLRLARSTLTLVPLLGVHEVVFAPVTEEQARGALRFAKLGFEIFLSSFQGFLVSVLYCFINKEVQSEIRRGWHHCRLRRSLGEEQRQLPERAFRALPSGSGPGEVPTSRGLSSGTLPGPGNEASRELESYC

human glucagon receptor = human glucagon receptor (human, UniProt P47871 26-477)
hGLP-1R = hGLP-1R (Homo sapiens, UniProt P43220)
[1] = target: T2, human GIP receptor (human) (UniProt P48546)
T2 sequence (looked up): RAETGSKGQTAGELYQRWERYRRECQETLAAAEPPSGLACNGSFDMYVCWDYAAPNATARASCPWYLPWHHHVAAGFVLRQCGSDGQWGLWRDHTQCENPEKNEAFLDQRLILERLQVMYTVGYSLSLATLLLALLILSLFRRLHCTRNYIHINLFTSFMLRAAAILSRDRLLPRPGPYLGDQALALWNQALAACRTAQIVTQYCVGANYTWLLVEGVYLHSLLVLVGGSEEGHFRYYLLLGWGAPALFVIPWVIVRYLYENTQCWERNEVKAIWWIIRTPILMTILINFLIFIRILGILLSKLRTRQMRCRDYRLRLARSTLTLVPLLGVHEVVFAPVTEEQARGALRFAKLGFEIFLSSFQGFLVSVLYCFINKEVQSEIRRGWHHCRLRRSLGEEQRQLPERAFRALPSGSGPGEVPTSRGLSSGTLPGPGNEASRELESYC

[2] = target: human glucagon receptor (human) (UniProt P47871)
human GLP-1 receptor = human GLP-1 receptor (human, UniProt P43220 24-463)

Chain of human glucagon receptor (P47871 26-477): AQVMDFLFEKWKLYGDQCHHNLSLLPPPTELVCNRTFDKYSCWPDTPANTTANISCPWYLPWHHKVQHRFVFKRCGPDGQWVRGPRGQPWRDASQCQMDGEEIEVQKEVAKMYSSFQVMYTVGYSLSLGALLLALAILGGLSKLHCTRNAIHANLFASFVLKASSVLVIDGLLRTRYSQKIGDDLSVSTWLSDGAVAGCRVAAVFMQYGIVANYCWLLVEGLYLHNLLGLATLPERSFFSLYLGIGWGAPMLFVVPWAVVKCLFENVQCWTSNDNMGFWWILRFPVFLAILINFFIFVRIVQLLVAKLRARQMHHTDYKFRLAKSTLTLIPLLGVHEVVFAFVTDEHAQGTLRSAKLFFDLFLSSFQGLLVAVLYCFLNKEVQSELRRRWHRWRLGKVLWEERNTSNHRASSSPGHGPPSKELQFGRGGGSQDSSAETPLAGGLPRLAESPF

B1: Example 425 (peptide)
peptide: YXEGTXTSDKXIXLDXKAQXEFIXXLIEGGPSSGAPPPS
modifications: Y-Aib-EGT-αMeF(2F)-TSDK((2-[2-(2-Amino-ethoxy)-ethoxy]-acetyl)-(γ-Glu)-CO-(CH2)10-CH3)-Aib-I-αMeL-LD-Orn-K((2-[2-(2-Amino-ethoxy)-ethoxy]-acetyl)-(γ-Glu)-CO-(CH2)10-CH3)AQ-Aib-EFI-(D-Glu)-αMeY-LIEGGPSSGAPPPS-NH2
For B1, the “cAMP EC50 (1.0% HSA)” value (human GIP receptor) was 0.875 nM, the “cAMP Emax (1.0% HSA)” value (human GIP receptor) was 89.9% and the “cAMP EC50 (1.0% HSA)” value (human glucagon receptor) was over 9950 nM. For the same binder, the cAMP EC50 (hGLP-1R) was 0.0965 nM, the cAMP Emax (hGLP-1R) was 108% and the cAMP EC50 [1] was 0.00943 nM. For the same binder, the cAMP Emax [1] was 97.6% and the cAMP EC50 [2] was over 9950 nM.

B2: Example 372 (peptide)
peptide: YXEGTXTSDYXIXLDXKAQXKFIXXLIEGGPSSGAPPPS
modifications: Y-Aib-EGT-αMeF(2F)-TSDY-Aib-I-αMeL-LD-Orn-K((2-[2-(2-Amino-ethoxy)-ethoxy]-acetyl)-(γ-Glu)-(10-(4-carboxyphenoxy)decanoyl))AQ-Aib-K((2-[2-(2-Amino-ethoxy)-ethoxy]-acetyl)-(γ-Glu)-(10-(4-carboxyphenoxy)decanoyl))FI-(D-Glu)-αMeY-LIEGGPSSGAPPPS-NH2
In the case of B2, the “cAMP EC50 (1.0% HSA)” value (human GIP receptor) is reported as 3.75 nM, the “cAMP Emax (1.0% HSA)” value (human GIP receptor) is reported as 90.6% and the “cAMP EC50 (1.0% HSA)” value (human GLP-1 receptor) is reported as 38 nM. The “cAMP EC50 (1.0% HSA)” value (human glucagon receptor) was over 9950 nM, the cAMP EC50 (hGLP-1R) was 0.291 nM and the cAMP Emax (hGLP-1R) was 108%. The cAMP EC50 [1] was 0.0112 nM, the cAMP Emax [1] was 97.3% and the cAMP EC50 [2] was over 9950 nM.

B3: Example 373 (peptide)
peptide: YXEGTXTSDYXIXLDXKAQXEFIXXLIKGGPSSGAPPPS
modifications: Y-Aib-EGT-αMeF(2F)-TSDY-Aib-I-αMeL-LD-Orn-K((2-[2-(2-Amino-ethoxy)-ethoxy]-acetyl)-(γ-Glu)-(10-(4-carboxyphenoxy)decanoyl))AQ-Aib-EFI-(D-Glu)-αMeY-LIK((2-[2-(2-Amino-ethoxy)-ethoxy]-acetyl)-(γ-Glu)-(10-(4-carboxyphenoxy)decanoyl))GGPSSGAPPPS-NH2
B3 was tested, and the “cAMP EC50 (1.0% HSA)” value (human GIP receptor) was 2.84 nM, the “cAMP EC50 (1.0% HSA)” value (human GLP-1 receptor) was 37.4 nM and the “cAMP EC50 (1.0% HSA)” value (human glucagon receptor) was over 9950 nM. It also gave a cAMP EC50 (hGLP-1R) of 0.329 nM, a cAMP Emax (hGLP-1R) of 101% and a cAMP EC50 [1] of 0.0152 nM. It also gave a cAMP Emax [1] of 101% and a cAMP EC50 [2] of over 9950 nM.

B4: Example 360 (peptide)
peptide: YXEGTXTSDXXIXLDXKAQXKFIXXLIEGGPSSGAPPPS
modifications: Y-Aib-EGT-αMeF(2F)-TSD-4Pal-Aib-I-αMeL-LD-Orn-K((2-[2-(2-Amino-ethoxy)-ethoxy]-acetyl)-(γ-Glu)-(10-(4-carboxyphenoxy)decanoyl))AQ-Aib-K((2-[2-(2-Amino-ethoxy)-ethoxy]-acetyl)-(γ-Glu)-(10-(4-carboxyphenoxy)decanoyl))FI-(D-Glu)-αMeY-LIEGGPSSGAPPPS-NH2
In the case of B4, the “cAMP EC50 (1.0% HSA)” value (human GIP receptor) is reported as 1.91 nM, the “cAMP EC50 (1.0% HSA)” value (human GLP-1 receptor) is reported as 28.2 nM and the “cAMP EC50 (1.0% HSA)” value (human glucagon receptor) is reported as over 9950 nM. The cAMP EC50 (hGLP-1R) was 0.301 nM, the cAMP Emax (hGLP-1R) was 89.8% and the cAMP EC50 [1] was 0.0121 nM. For the same binder, the cAMP Emax [1] was 106% and the cAMP EC50 [2] was over 9950 nM.

B5: Example 359 (peptide)
peptide: YXEGTXTSDXXIXLDXKAQXEFIXXLIEGGPSSGAPPPSK
modifications: Y-Aib-EGT-αMeF(2F)-TSD-4Pal-Aib-I-αMeL-LD-Orn-K((2-[2-(2-Amino-ethoxy)-ethoxy]-acetyl)2-(γ-Glu)-CO-(CH2)12-CO2H)AQ-Aib-EFI-(D-Glu)-αMeY-LIEGGPSSGAPPPSK((2-[2-(2-Amino-ethoxy)-ethoxy]-acetyl)2-(γ-Glu)-CO-(CH2)12-CO2H)-NH2
B5 was tested, and the “cAMP EC50 (1.0% HSA)” value (human GIP receptor) was 1.58 nM, the “cAMP Emax (1.0% HSA)” value (human GIP receptor) was 81% and the “cAMP EC50 (1.0% HSA)” value (human GLP-1 receptor) was 40.5 nM. For the same binder, the “cAMP Emax (1.0% HSA)” value (human GLP-1 receptor) was 95.1%, the “cAMP EC50 (1.0% HSA)” value (human glucagon receptor) was over 9950 nM and the cAMP EC50 (hGLP-1R) was 1.18 nM. For the same binder, the cAMP Emax (hGLP-1R) was 104%, the cAMP EC50 [1] was 0.0261 nM and the cAMP Emax [1] was 103%. It also gave a cAMP EC50 [2] of over 10100 nM.

B6: Example 362 (peptide)
peptide: YXEGTXTSDXXIXLDXKAQXEFIXXLIEGGPSSGAPPPSK
modifications: Y-Aib-EGT-αMeF(2F)-TSD-4Pal-Aib-I-αMeL-LD-Orn-K((2-[2-(2-Amino-ethoxy)-ethoxy]-acetyl)-(y-Glu)-(10-(4-carboxyphenoxy)decanoyl))AQ-Aib-EFI-(D-Glu)-αMeY-LIEGGPSSGAPPPSK((2-[2-(2-Amino-ethoxy)-ethoxy]-acetyl)-(γ-Glu)-(10-(4-carboxyphenoxy)decanoyl))-NH2
With B6 the “cAMP EC50 (1.0% HSA)” value (human GIP receptor) was 0.936 nM, the “cAMP EC50 (1.0% HSA)” value (human GLP-1 receptor) was 29.9 nM and the “cAMP EC50 (1.0% HSA)” value (human glucagon receptor) was over 9950 nM. It also gave a cAMP EC50 (hGLP-1R) of 0.34 nM, a cAMP Emax (hGLP-1R) of 109% and a cAMP EC50 [1] of 0.0131 nM. The cAMP EC50 [2] was over 10100 nM.

B7: Example 374 (peptide)
peptide: YXEGTXTSDYXIXLDXKAQXEFIXXLIEGGPSSGAPPPSK
modifications: Y-Aib-EGT-αMeF(2F)-TSDY-Aib-I-αMeL-LD-Orn-K((2-[2-(2-Amino-ethoxy)-ethoxy]-acetyl)-(γ-Glu)-(10-(4-carboxyphenoxy)decanoyl))AQ-Aib-EFI-(D-Glu)-αMeY-LIEGGPSSGAPPPSK((2-[2-(2-Amino-ethoxy)-ethoxy]-acetyl)-(γ-Glu)-(10-(4-carboxyphenoxy)decanoyl))-NH2
With B7 the “cAMP EC50 (1.0% HSA)” value (human GIP receptor) was 1.96 nM, the “cAMP Emax (1.0% HSA)” value (human GIP receptor) was 88.8% and the “cAMP EC50 (1.0% HSA)” value (human GLP-1 receptor) was 39.7 nM. The “cAMP EC50 (1.0% HSA)” value (human glucagon receptor) was over 9950 nM, the cAMP EC50 (hGLP-1R) was 0.269 nM and the cAMP Emax (hGLP-1R) was 106%. It also gave a cAMP EC50 [1] of 0.0135 nM, a cAMP Emax [1] of 96.2% and a cAMP EC50 [2] of over 9950 nM.

B8: Example 377 (peptide)
peptide: YXEGTXTSDYXIXLDXIAQXKFIXXLIEGGPSSGAPPPSK
modifications: Y-Aib-EGT-αMeF(2F)-TSDY-Aib-I-αMeL-LD-Orn-IAQ-Aib-K((2-[2-(2-Amino-ethoxy)-ethoxy]-acetyl)-(γ-Glu)-(10-(4-carboxyphenoxy)decanoyl))FI-(D-Glu)-αMeY-LIEGGPSSGAPPPSK((2-[2-(2-Amino-ethoxy)-ethoxy]-acetyl)-(γ-Glu)-(10-(4-carboxyphenoxy)decanoyl))-NH2
B8 was tested, and the “cAMP EC50 (1.0% HSA)” value (human GIP receptor) was 17.5 nM, the “cAMP Emax (1.0% HSA)” value (human GIP receptor) was 79.4% and the “cAMP EC50 (1.0% HSA)” value (human GLP-1 receptor) was 178 nM. For the same binder, the “cAMP Emax (1.0% HSA)” value (human GLP-1 receptor) was 110%, the “cAMP EC50 (1.0% HSA)” value (human glucagon receptor) was over 9950 nM and the cAMP EC50 (hGLP-1R) was 0.356 nM. It also gave a cAMP Emax (hGLP-1R) of 100%, a cAMP EC50 [1] of 0.0205 nM and a cAMP Emax [1] of 92.8%. For the same binder, the cAMP EC50 [2] was over 9950 nM.

— US20230265151A1, “GIP/GLP1 CO-AGONIST COMPOUNDS” (priority 2020, published 2023)
